Test results taken from patent publication US6096512.
Where two headings read alike, the source gives them in different places.

Experiments:
[1] = target: bovine apomucin (deglycosylated bovine submaxillary mucin) (bovine)
[2] = target: bovine apomucin (deglycosylated bovine submaxillary mucin) (bovine); remark: listed apart in the source
[3] = target: serine containing acceptor peptide …
[4] = target: serine containing acceptor peptide …; remark: listed apart in the source

Substance | Total activity (U), cell lysate [1] [U] | specific activity of the purified enzyme preparation [2] [U/mg protein] | Km [3] [mM] | Km [4] [mM]
cloned full-length (membrane bound) bovine GalNAc-transferase expressed in Sf9 cells (enzyme) | 16.2 |  |  | 
soluble, secreted recombinant bovine GalNAc-transferase GalNAcTs (enzyme) |  | 2160 | 3.6 | 3.5
